Measured values taken from publication PMC10718521, “Complexity of αvβ6-integrin targeting RGD peptide trimers: emergence of non-specific binding by synergistic interaction” (RSC Medicinal Chemistry, 2023).

Tests used:
[1] = in vivo; set-up: species or system mice; settings: CB17 SCID, mouse, total radioactivity
Text: The biodistribution of all ^68Ga-labeled peptide trimers was investigated in severe combined immunodeficiency (SCID) mice bearing subcutaneous xenografts of the αvβ6-integrin expressing human lung adenocarcinoma cell line H2009 on their right shoulders.
(§1) Unless otherwise noted, the materials and the instrumentation used (analytical and preparative HPLC, ESI-MS, gamma counter, centrifuge), and the experimental procedures (^68Ga radiolabeling and radio-TLC for quality control, determination of log D7.4, cultivation of H2009 human lung adenocarcinoma cells, generation of tumor xenografts in CB17 SCID mice, small-animal PET, and biodistribution) were described before.[19] All animal experiments have been carried out according to applicable law and institutional guidelines of Technical University of Munich, and were approved by the responsible local authority (Regierung von Oberbayern). The H2009 cells were regularly authenticated and tested for mycoplasma contamination. The affinities of the pentynoic amide functionalized peptides were determined employing a well-established ELISA protocol on immobilized integrins.[36] TRAP-triazide,[38]FF (previously termed AvB6),[32] and YY (also referred to as Tyr2-alkyne)[33] were synthesized as described previously. RP-HPLC for assessment of compound polarity was done on a 150 × 4.6 mm ReproSil-Pur 120 C18-AQ 5 μm column, with a flow of 0.75 mL min^−1 and a gradient of 10–50% MeCN in water, both containing 0.1% trifluoroacetic acid, within 15 min. The required ^natGa-complexes of the peptide trimers were synthesized by reaction with equimolar amounts of aq. GaCl3 as described.[19]

[2] = type: physicochemical; settings: pH 7.4
Procedure: The trimers were labeled with ^68Ga for biodistribution and small-animal PET experiments employing a fully automated method.[39] Non-radioactive reference compounds were obtained by complexation of equimolar amounts of ^natGa^3+ in form of the aq. chloride solution.[39] The polarity of the ^68Ga or ^natGa^3+ containing conjugates, respectively, was assessed by two established proxies, namely the n-octanol/water distribution coefficient at pH 7.4, log D7.4, and the retention time tR on a reverse-phase HPLC column with a suitable liquid-phase gradient (10–50% acetonitrile in water with 0.1% trifluoroacetic acid) (see Fig. 2a). […] A measurable decrease of the log D7.4 was only observed for ≥3 Tyr. […]
as §1

[3] = tumor/organ ratio Heart (myocard)
[4] = tumor/organ ratio Large intestine (empty)
[5] = tumor/organ ratio Small intestine (empty)
[6] = tumor/organ ratio Stomach (empty)

Structure (SMILES)	tissue uptake at 1.5 h ([1]; Adrenals uptake)	tissue uptake at 1.5 h ([1]; Blood uptake)	tissue uptake at 1.5 h ([1]; Heart (myocard) uptake)	tissue uptake at 1.5 h ([1]; Kidneys uptake)	tissue uptake at 1.5 h ([1]; Large intestine (empty) uptake)	tissue uptake at 1.5 h ([1]; Liver uptake)	tissue uptake at 1.5 h ([1]; Lung uptake)	tissue uptake at 1.5 h ([1]; Muscle uptake)	tissue uptake at 1.5 h ([1]; Pancreas uptake)	tissue uptake at 1.5 h ([1]; Small intestine (empty) uptake)	tissue uptake at 1.5 h ([1]; Spleen uptake)	tissue uptake at 1.5 h ([1]; Stomach (empty) uptake)	tissue uptake at 1.5 h ([1]; Tumor H2009 uptake)	tissue to tissue ratio at 1.5 h ([1]; tumor/organ ratio Adrenals)	tissue to tissue ratio at 1.5 h ([1]; tumor/organ ratio Blood)	tissue to tissue ratio at 1.5 h [1, 3]	tissue to tissue ratio at 1.5 h ([1]; tumor/organ ratio Kidneys)	tissue to tissue ratio at 1.5 h [1, 4]	tissue to tissue ratio at 1.5 h ([1]; tumor/organ ratio Liver)	logD [2]	further results
CC(C)C[C@@H]1NC(=O)[C@H](CC(=O)O)NC(=O)CNC(=O)[C@H](CCCNC(=N)N)NC(=O)[C@H](Cc2ccccc2)NC(=O)[C@H](CCCCNC(=O)CCc2cn(CCCNC(=O)CCP(=O)(O)CN3CCN(CP(=O)(O)CCC(=O)NCCCn4cc(CCC(=O)NCCCC[C@H]5C(=O)N[C@@H](Cc6ccccc6)C(=O)N[C@@H](CCCNC(=N)N)C(=O)NCC(=O)N[C@@H](CC(=O)O)C(=O)N[C@@H](CC(C)C)C(=O)N[C@@H](C)C(=O)N[C@@H](Cc6ccccc6)C(=O)N6CCC[C@@H]6C(=O)N5C)nn4)CCN(CP(=O)(O)CCC(=O)NCCCn4cc(CCC(=O)NCCCC[C@H]5C(=O)N[C@@H](Cc6ccccc6)C(=O)N[C@@H](CCCNC(=N)N)C(=O)NCC(=O)N[C@@H](CC(=O)O)C(=O)N[C@@H](CC(C)C)C(=O)N[C@@H](C)C(=O)N[C@@H](Cc6ccc(O)cc6)C(=O)N6CCC[C@@H]6C(=O)N5C)nn4)CC3)nn2)N(C)C(=O)[C@H]2CCCN2C(=O)[C@H](Cc2ccccc2)NC(=O)[C@H](C)NC1=O (68Ga complex, metal not drawn) [Y1F]	1.26 ± 0.24 %ID/g	2.57 ± 0.33 %ID/g	1.2 ± 0.16 %ID/g	111 ± 15.3 %ID/g	4.43 ± 1.28 %ID/g	3.86 ± 0.17 %ID/g	8.81 ± 0.64 %ID/g	0.97 ± 0.48 %ID/g	0.61 ± 0.1 %ID/g	2.86 ± 0.57 %ID/g	3.48 ± 0.49 %ID/g	7.37 ± 1.23 %ID/g	8.08 ± 1.35 %ID/g	6.5 ± 0.8	3.2 ± 0.6	6.8 ± 1.2	0.1	2 ± 0.9	2.1 ± 0.4	-1.4 ± 0.1	tissue to tissue ratio at 1.5 h ([1]; tumor/organ ratio Lung): 0.9 ± 0.1; tissue to tissue ratio at 1.5 h ([1]; tumor/organ ratio Muscle): 9.5 ± 3.2; tissue to tissue ratio at 1.5 h ([1]; tumor/organ ratio Pancreas): 13.3 ± 2.3; tissue to tissue ratio at 1.5 h [1, 5]: 2.9 ± 0.9; tissue to tissue ratio at 1.5 h ([1]; tumor/organ ratio Spleen): 2.4 ± 0.2; tissue to tissue ratio at 1.5 h [1, 6]: 1.1 ± 0.3; log D7.4 [2]: −1.4 to −1.5
CC(C)C[C@@H]1NC(=O)[C@H](CC(=O)O)NC(=O)CNC(=O)[C@H](CCCNC(=N)N)NC(=O)[C@H](Cc2ccccc2)NC(=O)[C@H](CCCCNC(=O)CCc2cn(CCCNC(=O)CCP(=O)(O)CN3CCN(CP(=O)(O)CCC(=O)NCCCn4cc(CCC(=O)NCCCC[C@H]5C(=O)N[C@@H](Cc6ccccc6)C(=O)N[C@@H](CCCNC(=N)N)C(=O)NCC(=O)N[C@@H](CC(=O)O)C(=O)N[C@@H](CC(C)C)C(=O)N[C@@H](C)C(=O)N[C@@H](Cc6ccccc6)C(=O)N6CCC[C@@H]6C(=O)N5C)nn4)CCN(CP(=O)(O)CCC(=O)NCCCn4cc(CCC(=O)NCCCC[C@H]5C(=O)N[C@@H](Cc6ccccc6)C(=O)N[C@@H](CCCNC(=N)N)C(=O)NCC(=O)N[C@@H](CC(=O)O)C(=O)N[C@@H](CC(C)C)C(=O)N[C@@H](C)C(=O)N[C@@H](Cc6ccccc6)C(=O)N6CCC[C@@H]6C(=O)N5C)nn4)CC3)nn2)N(C)C(=O)[C@H]2CCCN2C(=O)[C@H](Cc2ccccc2)NC(=O)[C@H](C)NC1=O (68Ga complex, metal not drawn) [Y0]	2.4 ± 0.38 %ID/g	4.01 ± 0.74 %ID/g	2.13 ± 0.42 %ID/g	90.7 ± 6.7 %ID/g	5.74 ± 1.36 %ID/g	7.55 ± 0.78 %ID/g	16.9 ± 5.34 %ID/g	1.1 ± 0.22 %ID/g	0.91 ± 0.22 %ID/g	4.2 ± 1.07 %ID/g	5.21 ± 1.05 %ID/g	10.3 ± 1.62 %ID/g	8.73 ± 0.81 %ID/g	–	–	–	–	–	–	-1.5 ± 0.1	log D7.4 [2]: −1.4 to −1.5
CC(C)C[C@@H]1NC(=O)[C@H](CC(=O)O)NC(=O)CNC(=O)[C@H](CCCNC(=N)N)NC(=O)[C@H](Cc2ccccc2)NC(=O)[C@H](CCCCNC(=O)CCc2cn(CCCNC(=O)CCP(=O)(O)CN3CCN(CP(=O)(O)CCC(=O)NCCCn4cc(CCC(=O)NCCCC[C@H]5C(=O)N[C@@H](Cc6ccccc6)C(=O)N[C@@H](CCCNC(=N)N)C(=O)NCC(=O)N[C@@H](CC(=O)O)C(=O)N[C@@H](CC(C)C)C(=O)N[C@@H](C)C(=O)N[C@@H](Cc6ccc(O)cc6)C(=O)N6CCC[C@@H]6C(=O)N5C)nn4)CCN(CP(=O)(O)CCC(=O)NCCCn4cc(CCC(=O)NCCCC[C@H]5C(=O)N[C@@H](Cc6ccccc6)C(=O)N[C@@H](CCCNC(=N)N)C(=O)NCC(=O)N[C@@H](CC(=O)O)C(=O)N[C@@H](CC(C)C)C(=O)N[C@@H](C)C(=O)N[C@@H](Cc6ccc(O)cc6)C(=O)N6CCC[C@@H]6C(=O)N5C)nn4)CC3)nn2)N(C)C(=O)[C@H]2CCCN2C(=O)[C@H](Cc2ccc(O)cc2)NC(=O)[C@H](C)NC1=O (68Ga complex, metal not drawn) [Y3F]	0.77 ± 0.42 %ID/g	0.96 ± 0.3 %ID/g	0.62 ± 0.15 %ID/g	71.1 ± 15 %ID/g	5.15 ± 2.63 %ID/g	0.95 ± 0.22 %ID/g	4.83 ± 1.54 %ID/g	0.66 ± 0.25 %ID/g	0.34 ± 0.11 %ID/g	2.6 ± 0.9 %ID/g	2.38 ± 0.31 %ID/g	5.64 ± 1.94 %ID/g	6.69 ± 1.21 %ID/g	10.3 ± 3.8	7.2 ± 1.1	10.9 ± 0.8	0.1	1.6 ± 0.7	7.1 ± 0.7	-1.8 ± 0.1	tissue to tissue ratio at 1.5 h ([1]; tumor/organ ratio Lung): 1.5 ± 0.3; tissue to tissue ratio at 1.5 h ([1]; tumor/organ ratio Muscle): 10.9 ± 3; tissue to tissue ratio at 1.5 h ([1]; tumor/organ ratio Pancreas): 20.4 ± 3.1; tissue to tissue ratio at 1.5 h [1, 5]: 2.7 ± 0.5; tissue to tissue ratio at 1.5 h ([1]; tumor/organ ratio Spleen): 2.8 ± 0.4; tissue to tissue ratio at 1.5 h [1, 6]: 1.3 ± 0.3
CC(C)C[C@@H]1NC(=O)[C@H](CC(=O)O)NC(=O)CNC(=O)[C@H](CCCNC(=N)N)NC(=O)[C@H](Cc2ccccc2)NC(=O)[C@H](CCCCNC(=O)CCc2cn(CCCNC(=O)CCP(=O)(O)CN3CCN(CP(=O)(O)CCC(=O)NCCCn4cc(CCC(=O)NCCCC[C@H]5C(=O)N[C@@H](Cc6ccccc6)C(=O)N[C@@H](CCCNC(=N)N)C(=O)NCC(=O)N[C@@H](CC(=O)O)C(=O)N[C@@H](CC(C)C)C(=O)N[C@@H](C)C(=O)N[C@@H](Cc6ccc(O)cc6)C(=O)N6CCC[C@@H]6C(=O)N5C)nn4)CCN(CP(=O)(O)CCC(=O)NCCCn4cc(CCC(=O)NCCCC[C@H]5C(=O)N[C@@H](Cc6ccccc6)C(=O)N[C@@H](CCCNC(=N)N)C(=O)NCC(=O)N[C@@H](CC(=O)O)C(=O)N[C@@H](CC(C)C)C(=O)N[C@@H](C)C(=O)N[C@@H](Cc6ccc(O)cc6)C(=O)N6CCC[C@@H]6C(=O)N5C)nn4)CC3)nn2)N(C)C(=O)[C@H]2CCCN2C(=O)[C@H](Cc2ccccc2)NC(=O)[C@H](C)NC1=O (68Ga complex, metal not drawn) [Y2F]	0.84 ± 0.07 %ID/g	1.62 ± 0.2 %ID/g	0.76 ± 0.06 %ID/g	107 ± 7.49 %ID/g	3.96 ± 1.16 %ID/g	2.09 ± 0.17 %ID/g	5.62 ± 1.34 %ID/g	0.66 ± 0.12 %ID/g	0.38 ± 0.04 %ID/g	2.51 ± 0.5 %ID/g	3.84 ± 1.14 %ID/g	6.99 ± 3.4 %ID/g	7.99 ± 1.62 %ID/g	9.6 ± 2.2	4.9 ± 1	10.6 ± 2	0.1	2.1 ± 0.5	3.8 ± 0.9	-1.5 ± 0.1	tissue to tissue ratio at 1.5 h ([1]; tumor/organ ratio Lung): 1.4 ± 0.2; tissue to tissue ratio at 1.5 h ([1]; tumor/organ ratio Muscle): 12.2 ± 1.5; tissue to tissue ratio at 1.5 h ([1]; tumor/organ ratio Pancreas): 20.8 ± 3.9; tissue to tissue ratio at 1.5 h [1, 5]: 3.2 ± 0.4; tissue to tissue ratio at 1.5 h ([1]; tumor/organ ratio Spleen): 2.2 ± 0.5; tissue to tissue ratio at 1.5 h [1, 6]: 1.3 ± 0.3; log D7.4 [2]: −1.4 to −1.5
